# Assay results taken from patent publication US20240425882.
# T1: microtubule-associated protein EB2 (endogenous, mouse brain), Q8R001
# T1 chain: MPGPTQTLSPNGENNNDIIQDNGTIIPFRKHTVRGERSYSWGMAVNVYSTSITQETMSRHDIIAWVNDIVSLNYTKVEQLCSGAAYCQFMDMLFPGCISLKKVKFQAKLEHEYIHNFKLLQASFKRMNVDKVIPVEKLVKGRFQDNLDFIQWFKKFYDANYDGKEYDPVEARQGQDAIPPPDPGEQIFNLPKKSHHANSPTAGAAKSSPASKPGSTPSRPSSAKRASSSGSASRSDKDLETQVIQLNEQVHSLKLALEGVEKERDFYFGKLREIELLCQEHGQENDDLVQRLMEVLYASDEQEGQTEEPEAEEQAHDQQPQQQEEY
# Biological target: T1, microtubule-associated protein EB2 …
protein,measurement,value
"human cyclin-dependent kinase-like 5 (CDKL5), isoform 1 (protein) MKIPNIGNVMNKFEILGVVGEGAYGVVLKCRHKETHEIVAIKKFKDSEENEEVKETTLRELKMLRTLKQENIVELKEAFRRRGKLYLVFEYVEKNMLELLEEMPNGVPPEKVKSYIYQLIKAIHWCHKNDIVHRDIKPENLLISHNDVLKLCDFGFARNLSEGNNANYTEYVATRWYRSPELLLGAPYGKSVDMWSVGCILGELSDGQPLFPGESEIDQLFTIQKVLGPLPSEQMKLFYSNPRFHGLRFPAVNHPQSLERRYLGILNSVLLDLMKNLLKLDPADRYLTEQCLNHPTFQTQRLLDRSPSRSAKRKPYHVESSTLSNRNQAGKSTALQSHHRSNSKDIQNLSVGLPRADEGLPANESFLNGNLAGASLSPLHTKTYQASSQPGSTSKDLTNNNIPHLLSPKEAKSKTEFDFNIDPKPSEGPGTKYLKSNSRSQQNRHSFMESSQSKAGTLQPNEKQSRHSYIDTIPQSSRSPSYRTKAKSHGALSDSKSVSNLSEARAQIAEPSTSRYFPSSCLDLNSPTSPTPTRHSDTRTLLSPSGRNNRNEGTLDSRRTTTRHSKTMEELKLPEHMDSSHSHSLSAPHESFSYGLGYTSPFSSQQRPHRHSMYVTRDKVRAKGLDGSLSIGQGMAARANSLQLLSPQPGEQLPPEMTVARSSVKETSREGTSSFHTRQKSEGGVYHDPHSDDGTAPKENRHLYNDPVPRRVGSFYRVPSPRPDNSFHENNVSTRVSSLPSESSSGTNHSKRQPAFDPWKSPENISHSEQLKEKEKQGFFRSMKKKKKKSQTVPNSDSPDLLTLQKSIHSASTPSSRPKEWRPEKISDLQTQSQPLKSLRKLLHLSSASNHPASSDPRFQPLTAQQTKNSFSEIRIHPLSQASGGSSNIRQEPAPKGRPALQLPGQMDPGWHVSSVTRSATEGPSYSEQLGAKSGPNGHPYNRTNRSRMPNLNDLKETAL",EB2 phosphorylation (Cdkl5(D471fs) mouse brain),showed robust hCDKL5 protein expression and EB2 phosphorylation 3 months later
same,EB2 phosphorylation (Cdkl5(R59X) mouse brain),showed robust hCDKL5 protein expression and EB2 phosphorylation 3 months later
same,"ability to phosphorylate EB2 (pS222 EB2 Western blot, mouse brain)","CDKL5 was fully active, as determined by its ability to phosphorylate its endogenous target EB2 protein"
same,"kinase activity, blotting for phosphorylated EB2 (Cdkl5-ko mouse brain, 3 months after AAV)",human CDKL5 showed robust kinase activity when blotting for phosphorylated EB2 protein
same,"substrate phosphorylation by CDKL5 (phospho-EB2 levels, pS222/total EB2, Western blot, brain)",the observed reduction in substrate phosphorylation by CDKL5 (as determined by phospho-EB2 levels) ... was restored to wild type levels
"human CDKL5, isoform 2 (protein) MKIPNIGNVMNKFEILGVVGEGAYGVVLKCRHKETHEIVAIKKFKDSEENEEVKETTLRELKMLRTLKQENIVELKEAFRRRGKLYLVFEYVEKNMLELLEEMPNGVPPEKVKSYIYQLIKAIHWCHKNDIVHRDIKPENLLISHNDVLKLCDFGFARNLSEGNNANYTEYVATRWYRSPELLLGAPYGKSVDMWSVGCILGELSDGQPLFPGESEIDQLFTIQKVLGPLPSEQMKLFYSNPRFHGLRFPAVNHPQSLERRYLGILNSVLLDLMKNLLKLDPADRYLTEQCLNHPTFQTQRLLDRSPSRSAKRKPYHVESSTLSNRNQAGKSTALQSHHRSNSKDIQNLSVGLPRADEGLPANESFLNGNLAGASLSPLHTKTYQASSQPGSTSKDLTNNNIPHLLSPKEAKSKTEFDFNIDPKPSEGPGTKYLKSNSRSQQNRHSFMESSQSKAGTLQPNEKQSRHSYIDTIPQSSRSPSYRTKAKSHGALSDSKSVSNLSEARAQIAEPSTSRYFPSSCLDLNSPTSPTPTRHSDTRTLLSPSGRNNRNEGTLDSRRTTTRHSKTMEELKLPEHMDSSHSHSLSAPHESFSYGLGYTSPFSSQQRPHRHSMYVTRDKVRAKGLDGSLSIGQGMAARANSLQLLSPQPGEQLPPEMTVARSSVKETSREGTSSFHTRQKSEGGVYHDPHSDDGTAPKENRHLYNDPVPRRVGSFYRVPSPRPDNSFHENNVSTRVSSLPSESSSGTNHSKRQPAFDPWKSPENISHSEQLKEKEKQGFFRSMKKKKKKSQTTDSTNGENPSIKKSLFPLFNSKNHLKHSSSLKKLPVVTPPMVPNSDSPDLLTLQKSIHSASTPSSRPKEWRPEKISDLQTQSQPLKSLRKLLHLSSASNHPASSDPRFQPLTAQQTKNSFSEIRIHPLSQASGGSSNIRQEPAPKGRPALQLPGQMDPGWHVSSVTRSATEGPSYSEQLGAKSGPNGHPYNRTNRSRMPNLNDLKETAL","EB2 phosphorylation levels (Western blot, Cdkl5-ko mouse brain)",EB2 phosphorylation levels generated by isoform 2 were slightly higher ... compared to isoform 1
"human CDKL5, isoform 3 (protein) MKIPNIGNVMNKFEILGVVGEGAYGVVLKCRHKETHEIVAIKKFKDSEENEEVKETTLRELKMLRTLKQENIVELKEAFRRRGKLYLVFEYVEKNMLELLEEMPNGVPPEKVKSYIYQLIKAIHWCHKNDIVHRDIKPENLLISHNDVLKLCDFGFARNLSEGNNANYTEYVATRWYRSPELLLGAPYGKSVDMWSVGCILGELSDGQPLFPGESEIDQLFTIQKVLGPLPSEQMKLFYSNPRFHGLRFPAVNHPQSLERRYLGILNSVLLDLMKNLLKLDPADRYLTEQCLNHPTFQTQRLLDRSPSRNQAGKSTALQSHHRSNSKDIQNLSVGLPRADEGLPANESFLNGNLAGASLSPLHTKTYQASSQPGSTSKDLTNNNIPHLLSPKEAKSKTEFDFNIDPKPSEGPGTKYLKSNSRSQQNRHSFMESSQSKAGTLQPNEKQSRHSYIDTIPQSSRSPSYRTKAKSHGALSDSKSVSNLSEARAQIAEPSTSRYFPSSCLDLNSPTSPTPTRHSDTRTLLSPSGRNNRNEGTLDSRRTTTRHSKTMEELKLPEHMDSSHSHSLSAPHESFSYGLGYTSPFSSQQRPHRHSMYVTRDKVRAKGLDGSLSIGQGMAARANSLQLLSPQPGEQLPPEMTVARSSVKETSREGTSSFHTRQKSEGGVYHDPHSDDGTAPKENRHLYNDPVPRRVGSFYRVPSPRPDNSFHENNVSTRVSSLPSESSSGTNHSKRQPAFDPWKSPENISHSEQLKEKEKQGFFRSMKKKKKKSQTVPNSDSPDLLTLQKSIHSASTPSSRPKEWRPEKISDLQTQSQPLKSLRKLLHLSSASNHPASSDPRFQPLTAQQTKNSFSEIRIHPLSQASGGSSNIRQEPAPKGRPALQLPGQMDPGWHVSSVTRSATEGPSYSEQLGAKSGPNGHPYNRTNRSRMPNLNDLKETAL","EB2 phosphorylation levels (Western blot, Cdkl5-ko mouse brain)",by isoforms three or 4 slightly lower compared to isoform 1
"human CDKL5, isoform 4 (protein) MKIPNIGNVMNKFEILGVVGEGAYGVVLKCRHKETHEIVAIKKFKDSEENEEVKETTLRELKMLRTLKQENIVELKEAFRRRGKLYLVFEYVEKNMLELLEEMPNGVPPEKVKSYIYQLIKAIHWCHKNDIVHRDIKPENLLISHNDVLKLCDFGFARNLSEGNNANYTEYVATRWYRSPELLLGAPYGKSVDMWSVGCILGELSDGQPLFPGESEIDQLFTIQKVLGPLPSEQMKLFYSNPRFHGLRFPAVNHPQSLERRYLGILNSVLLDLMKNLLKLDPADRYLTEQCLNHPTFQTQRLLDRSPSRNQAGKSTALQSHHRSNSKDIQNLSVGLPRADEGLPANESFLNGNLAGASLSPLHTKTYQASSQPGSTSKDLTNNNIPHLLSPKEAKSKTEFDFNIDPKPSEGPGTKYLKSNSRSQQNRHSFMESSQSKAGTLQPNEKQSRHSYIDTIPQSSRSPSYRTKAKSHGALSDSKSVSNLSEARAQIAEPSTSRYFPSSCLDLNSPTSPTPTRHSDTRTLLSPSGRNNRNEGTLDSRRTTTRHSKTMEELKLPEHMDSSHSHSLSAPHESFSYGLGYTSPFSSQQRPHRHSMYVTRDKVRAKGLDGSLSIGQGMAARANSLQLLSPQPGEQLPPEMTVARSSVKETSREGTSSFHTRQKSEGGVYHDPHSDDGTAPKENRHLYNDPVPRRVGSFYRVPSPRPDNSFHENNVSTRVSSLPSESSSGTNHSKRQPAFDPWKSPENISHSEQLKEKEKQGFFRSMKKKKKKSQTTDSTNGENPSIKKSLFPLFNSKNHLKHSSSLKKLPVVTPPMVPNSDSPDLLTLQKSIHSASTPSSRPKEWRPEKISDLQTQSQPLKSLRKLLHLSSASNHPASSDPRFQPLTAQQTKNSFSEIRIHPLSQASGGSSNIRQEPAPKGRPALQLPGQMDPGWHVSSVTRSATEGPSYSEQLGAKSGPNGHPYNRTNRSRMPNLNDLKETAL","EB2 phosphorylation levels (Western blot, Cdkl5-ko mouse brain)",by isoforms three or 4 slightly lower compared to isoform 1
